The target in test [1] is T1, KIR2DL3 (UniProt P43628 22-341, limits assumed).
T1 construct: whole, on cells
As to the kind of experiment: HEK293 cell microarray.

For test [2], the target named is T2, KIR3DL2 (UniProt P43630 22-455, limits assumed).
T2 construct: whole, on cells
Put plainly: HEK293 cell microarray.

For test [3], the target named is T3, KIR3DL1 (UniProt P43629 22-444, limits assumed).
T3 construct: whole, on cells
Put plainly: HEK293 cell microarray.

Test [4] has as its target T4, KIR2DL4 (UniProt Q99706 22-377, limits assumed).
T4 construct: whole, on cells
Put plainly: HEK293 cell microarray.

In test [5] the target is T5, KIR2DS3 (UniProt Q14952 22-304, limits assumed).
T5 construct: whole, on cells
As to the kind of experiment: HEK293 cell microarray.

The target of test [6] is T6, KIR2DL1 (UniProt P43626 22-348, limits assumed).
T6 construct: whole, on cells
Put plainly: HEK293 cell microarray.

Test [7] has as its target T7, KIR2DL2 (UniProt P43627 22-348, limits assumed).
T7 construct: whole, on cells
As to the kind of experiment: HEK293 cell microarray.

Test [8] has as its target T8, KIR2DS1 (UniProt Q14954 22-304, limits assumed).
T8 construct: whole, on cells
Put plainly: HEK293 cell microarray.

Test [9] has as its target T9, KIR2DS5 (UniProt Q14953 22-304, limits assumed).
T9 construct: whole, on cells
Put plainly: HEK293 cell microarray.

In test [10] the target is T10, KIR3DS1 (UniProt Q14943 22-382, limits assumed).
T10 construct: whole, on cells
As to the kind of experiment: HEK293 cell microarray.

The target of test [11] is T11, KIR2DS2 (UniProt P43631 22-304, limits assumed).
T11 construct: whole, on cells
Put plainly: HEK293 cell microarray.

In test [12] the target is T12, KIR2DL5A (UniProt Q8N109 22-375, limits assumed).
T12 construct: whole, on cells
Put plainly: HEK293 cell microarray, hybridoma supernatant. How it is done: In Table 4, replicate microarray slides expressing the KIR family cDNA panel (as in FIG. 1A, FIG. 2B, and FIG. 2C) were fixed and blocked with buffer containing PBS/0.5% BSA and incubated for 1 hour at room temperature with individual KIR3DL3 mAb hybridoma supernatants at 1:5, 1:25 and 1:250 dilutions in PBS/0.1% BSA. Cell arrays were washed with PBS and incubated for 1 hour at room temperature in PBS/0.1% BSA containing AF647-conjugated goat anti-mouse IgG (H+L) (Life Technologies, A21235). Slides were washed with PBS, dried, and imaged for ZsGreen1 and AF647 fluorescence.

Consider one molecule from patent US20250388702A1 (Dana-Farber, published 2025).

T10 sequence (Q14943 22-382 limits assumed): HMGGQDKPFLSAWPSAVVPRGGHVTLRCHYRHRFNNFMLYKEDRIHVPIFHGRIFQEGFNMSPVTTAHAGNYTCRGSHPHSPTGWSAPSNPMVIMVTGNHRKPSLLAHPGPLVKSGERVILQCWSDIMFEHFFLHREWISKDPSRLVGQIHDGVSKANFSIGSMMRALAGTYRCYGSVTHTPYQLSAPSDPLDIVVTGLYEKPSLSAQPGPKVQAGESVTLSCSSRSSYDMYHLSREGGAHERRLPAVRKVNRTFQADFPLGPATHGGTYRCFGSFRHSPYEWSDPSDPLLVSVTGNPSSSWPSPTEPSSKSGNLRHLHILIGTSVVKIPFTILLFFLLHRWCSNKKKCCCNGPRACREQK
T11 sequence (P43631 22-304 limits assumed): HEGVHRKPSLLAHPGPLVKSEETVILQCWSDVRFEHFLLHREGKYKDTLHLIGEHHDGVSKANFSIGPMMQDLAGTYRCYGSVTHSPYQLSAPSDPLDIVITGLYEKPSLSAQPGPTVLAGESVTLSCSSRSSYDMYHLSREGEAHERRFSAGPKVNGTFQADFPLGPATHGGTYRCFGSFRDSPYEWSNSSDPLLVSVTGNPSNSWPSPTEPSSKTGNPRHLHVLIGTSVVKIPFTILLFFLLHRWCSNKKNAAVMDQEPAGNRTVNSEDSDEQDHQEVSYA
T12 sequence (Q8N109 22-375 limits assumed): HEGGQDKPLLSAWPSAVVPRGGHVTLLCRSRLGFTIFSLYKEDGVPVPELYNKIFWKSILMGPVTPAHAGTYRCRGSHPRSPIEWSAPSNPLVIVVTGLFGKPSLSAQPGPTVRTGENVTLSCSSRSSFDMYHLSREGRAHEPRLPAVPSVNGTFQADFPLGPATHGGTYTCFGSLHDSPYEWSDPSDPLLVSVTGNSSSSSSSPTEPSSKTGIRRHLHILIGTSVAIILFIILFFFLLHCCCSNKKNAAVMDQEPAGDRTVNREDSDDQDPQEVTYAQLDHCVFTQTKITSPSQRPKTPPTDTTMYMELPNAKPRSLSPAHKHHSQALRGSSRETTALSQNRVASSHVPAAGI
T6 sequence (P43626 22-348 limits assumed): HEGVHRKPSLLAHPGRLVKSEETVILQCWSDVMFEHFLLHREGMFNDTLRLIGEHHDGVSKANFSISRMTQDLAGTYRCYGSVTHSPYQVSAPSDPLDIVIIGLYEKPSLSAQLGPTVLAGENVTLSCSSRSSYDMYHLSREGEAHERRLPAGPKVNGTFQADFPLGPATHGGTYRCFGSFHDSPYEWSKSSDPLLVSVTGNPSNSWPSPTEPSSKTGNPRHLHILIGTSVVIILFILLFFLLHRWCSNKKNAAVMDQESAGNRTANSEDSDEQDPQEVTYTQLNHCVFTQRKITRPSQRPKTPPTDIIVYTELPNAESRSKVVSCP
T7 sequence (P43627 22-348 limits assumed): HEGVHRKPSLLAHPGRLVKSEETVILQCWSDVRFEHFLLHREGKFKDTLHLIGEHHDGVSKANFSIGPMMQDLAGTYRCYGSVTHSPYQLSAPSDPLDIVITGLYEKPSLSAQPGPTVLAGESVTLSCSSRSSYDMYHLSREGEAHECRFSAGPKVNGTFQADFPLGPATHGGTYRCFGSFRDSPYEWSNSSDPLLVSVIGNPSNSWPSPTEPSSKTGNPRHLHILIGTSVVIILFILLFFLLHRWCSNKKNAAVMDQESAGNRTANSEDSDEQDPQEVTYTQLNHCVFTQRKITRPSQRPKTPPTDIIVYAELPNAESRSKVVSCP
T8 sequence (Q14954 22-304 limits assumed): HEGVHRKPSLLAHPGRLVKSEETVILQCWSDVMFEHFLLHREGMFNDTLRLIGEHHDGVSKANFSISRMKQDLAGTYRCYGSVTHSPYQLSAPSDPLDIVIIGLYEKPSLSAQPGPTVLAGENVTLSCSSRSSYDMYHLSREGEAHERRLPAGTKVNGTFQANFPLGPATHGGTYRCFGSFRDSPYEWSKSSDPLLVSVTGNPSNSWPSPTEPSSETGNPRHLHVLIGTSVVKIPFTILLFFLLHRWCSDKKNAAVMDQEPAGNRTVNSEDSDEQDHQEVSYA
T3 sequence (P43629 22-444 limits assumed): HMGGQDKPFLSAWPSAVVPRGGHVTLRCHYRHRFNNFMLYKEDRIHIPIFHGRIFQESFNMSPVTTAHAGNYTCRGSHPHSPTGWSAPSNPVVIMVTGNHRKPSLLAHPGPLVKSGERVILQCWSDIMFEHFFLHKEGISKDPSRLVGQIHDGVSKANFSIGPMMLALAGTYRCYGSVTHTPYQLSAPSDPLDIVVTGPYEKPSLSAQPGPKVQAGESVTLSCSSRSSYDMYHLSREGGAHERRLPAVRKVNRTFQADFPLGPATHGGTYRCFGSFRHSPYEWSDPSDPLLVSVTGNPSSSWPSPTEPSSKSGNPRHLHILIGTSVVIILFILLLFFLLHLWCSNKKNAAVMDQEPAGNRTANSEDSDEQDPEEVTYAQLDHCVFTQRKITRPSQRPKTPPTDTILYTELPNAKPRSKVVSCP
T4 sequence (Q99706 22-377 limits assumed): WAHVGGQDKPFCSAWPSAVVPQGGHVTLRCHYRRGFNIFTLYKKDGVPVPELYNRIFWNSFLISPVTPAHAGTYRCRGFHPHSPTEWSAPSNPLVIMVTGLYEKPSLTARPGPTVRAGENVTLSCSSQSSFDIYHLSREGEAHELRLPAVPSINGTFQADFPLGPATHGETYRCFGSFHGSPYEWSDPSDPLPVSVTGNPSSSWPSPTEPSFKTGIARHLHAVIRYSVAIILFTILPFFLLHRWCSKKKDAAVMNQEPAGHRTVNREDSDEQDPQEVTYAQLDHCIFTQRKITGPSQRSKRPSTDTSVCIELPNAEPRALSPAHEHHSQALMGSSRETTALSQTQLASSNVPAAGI
T1 sequence (P43628 22-341 limits assumed): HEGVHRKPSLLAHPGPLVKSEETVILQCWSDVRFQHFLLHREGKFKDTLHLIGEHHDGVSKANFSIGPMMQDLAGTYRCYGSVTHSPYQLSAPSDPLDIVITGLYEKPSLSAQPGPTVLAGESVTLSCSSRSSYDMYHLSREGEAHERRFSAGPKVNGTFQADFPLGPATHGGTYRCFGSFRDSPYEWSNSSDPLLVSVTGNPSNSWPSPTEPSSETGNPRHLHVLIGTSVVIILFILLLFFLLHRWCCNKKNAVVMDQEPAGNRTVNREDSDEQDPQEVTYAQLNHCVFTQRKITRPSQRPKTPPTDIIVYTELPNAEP
T5 sequence (Q14952 22-304 limits assumed): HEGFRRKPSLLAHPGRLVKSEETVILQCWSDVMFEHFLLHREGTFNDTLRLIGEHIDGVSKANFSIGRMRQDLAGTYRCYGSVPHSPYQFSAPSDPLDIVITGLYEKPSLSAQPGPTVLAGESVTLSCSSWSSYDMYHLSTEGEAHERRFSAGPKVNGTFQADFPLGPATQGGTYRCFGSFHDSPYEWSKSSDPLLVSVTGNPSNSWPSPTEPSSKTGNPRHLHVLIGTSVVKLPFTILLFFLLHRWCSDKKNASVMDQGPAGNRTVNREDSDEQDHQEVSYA
T9 sequence (Q14953 22-304 limits assumed): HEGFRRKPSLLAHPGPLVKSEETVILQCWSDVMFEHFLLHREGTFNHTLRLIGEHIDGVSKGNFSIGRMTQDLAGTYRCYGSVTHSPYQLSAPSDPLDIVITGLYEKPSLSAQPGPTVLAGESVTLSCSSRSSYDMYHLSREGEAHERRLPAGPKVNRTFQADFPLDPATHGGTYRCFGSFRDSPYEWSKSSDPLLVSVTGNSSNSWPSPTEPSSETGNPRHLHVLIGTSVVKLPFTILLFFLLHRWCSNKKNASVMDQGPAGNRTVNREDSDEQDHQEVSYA
T2 sequence (P43630 22-455 limits assumed): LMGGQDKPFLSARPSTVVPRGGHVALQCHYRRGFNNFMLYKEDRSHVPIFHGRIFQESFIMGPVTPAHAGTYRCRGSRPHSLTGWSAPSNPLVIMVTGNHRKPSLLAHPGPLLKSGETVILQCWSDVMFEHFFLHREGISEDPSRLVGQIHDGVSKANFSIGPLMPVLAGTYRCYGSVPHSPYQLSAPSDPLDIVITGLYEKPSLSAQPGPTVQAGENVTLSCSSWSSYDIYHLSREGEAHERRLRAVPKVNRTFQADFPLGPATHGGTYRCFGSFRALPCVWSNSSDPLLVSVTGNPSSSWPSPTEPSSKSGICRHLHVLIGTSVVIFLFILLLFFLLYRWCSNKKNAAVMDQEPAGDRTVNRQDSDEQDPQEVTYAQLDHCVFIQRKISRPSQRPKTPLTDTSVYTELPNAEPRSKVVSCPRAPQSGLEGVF

B1: KIR3DL3 mAb 574.2.8C2.12.3.10 (antibody, IgG2a, V domains shown)
VH: KVQLQQSGAELVRPGTSVKVSCKASGYAFTNYLIEWVKQRPGQGLEWIGVINPGSGGTNDNEKFRDKATLTADKSSSTAYMQLSSLTSDDSAVYFCARGNYYGTTDWYFDVWGAGTTVTVSS
VL: QIVLTQSPAIMSASLGERVTMTCTASASVSSSSLHWYQQKPGSPPKFWIYSTTNLASGVPTRFSGSGSGTSYSLTISNMEAEDAATYYCHQYHRSPPTFGGGTKLEIK
notes: Mouse hybridoma antibody, IgG2a; only variable domains given; also called AVS-3706
Take B1: the binding result in [1] was “no binding (tested: supernatant 1:5, 1:25, 1:250)”; in test [2], “no binding (tested: supernatant 1:5, 1:25, 1:250)”; in [3], “no binding (tested: supernatant 1:5, 1:25, 1:250)”; in test [4] it was “no binding (tested: supernatant 1:5, 1:25, 1:250)”; in [5] it was “no binding (tested: supernatant 1:5, 1:25, 1:250)”; in test [6], “no binding (tested: supernatant 1:5, 1:25, 1:250)”. For the same molecule, the binding result in test [7] was “no binding (tested: supernatant 1:5, 1:25, 1:250)”; in test [8], “no binding (tested: supernatant 1:5, 1:25, 1:250)”; in test [9], “no binding (tested: supernatant 1:5, 1:25, 1:250)”; in test [10] it was “no binding (tested: supernatant 1:5, 1:25, 1:250)”; in [11], “no binding (tested: supernatant 1:5, 1:25, 1:250)”; in [12], “binds”.
